How the values were obtained:
Ribosomal protein L29 = Ribosomal protein L29 (Escherichia coli (endogenous in …, UniProt P0A7M6 1-63)); experiment: cross-linking
cross-linking = molecular target: the molecule itself; experiment: cross-linking

B1: DnaJ, recombinant (natural protein, Escherichia coli, UniProt P08622 1-376, looked up)
chain: MAKQDYYEILGVSKTAEEREIRKAYKRLAMKYHPDRNQGDKEAEAKFKEIKEAYEVLTDSQKRAAYDQYGHAAFEQGGMGGGGFGGGADFSDIFGDVFGDIFGGGRGRQRAARGADLRYNMELTLEEAVRGVTKEIRIPTLEECDVCHGSGAKPGTQPQTCPTCHGSGQVQMRQGFFAVQQTCPHCQGRGTLIKDPCNKCHGHGRVERSKTLSVKIPAGVDTGDRIRLAGEGEAGEHGAPAGDLYVQVQVKQHPIFEREGNNLYCEVPINFAMAALGGEIEVPTLDGRVKLKVPGETQTGKLFRMRGKGVKSVRGGAQGDLLCRVVVETPVGLNERQKQLLQELQESFGGPTGEHNSPRSKSFFDGVKKFFDDLTR
B1: binds (Ribosomal protein L29); binds (cross-linking).

Source: paper doi:10.1101/2024.01.22.576655 (bioRxiv, 2024)
